Results reported in patent publication US20210277118A1 (Daiichi Sankyo, published 2021).

B1: variant 18346, monovalent anti-CD3 scFv-heterodimeric Fc (VL hC3E-1 wildtype, VH hC3E-1 wildtype) (Fc fusion)
scFv: EVQLVESGGGLVQPGGSLRLSCAASGVTFNYYGMSWIRQAPGKGLEWVASITNSGGRIYYPDSVKGRFTISRENTQKTLYLQMNSLRAEDTAVYYCTLDGRDGWVAYWGQGTLVTVSSGGGGSGGGGSGGGGSNFMLTQPHSVSESPGKTVTISCKRNTGNIGSNYVNWYQQHEGSSPTTIIYRDDKRPDGVSDRFSGSIDRSSKSASLTISNLKTEDEADYFCQSYSSGFIFGGGTKLTVL
notes: scFv order VH-(GGGGS)3-VL on Fc chain A; chain B is Fc only; also called v18346; parental construct v18346; not shown: Fc-only chain B is also left out
B2: variant 21828, monovalent anti-CD3 scFv-heterodimeric Fc (VL hC3E-1 (D52N), VH hC3E-1(N53S_D102E)) (Fc fusion)
scFv: EVQLVESGGGLVQPGGSLRLSCAASGVTFNYYGMSWIRQAPGKGLEWVASITSSGGRIYYPDSVKGRFTISRENTQKTLYLQMNSLRAEDTAVYYCTLDGREGWVAYWGQGTLVTVSSGGGGSGGGGSGGGGSNFMLTQPHSVSESPGKTVTISCKRNTGNIGSNYVNWYQQHEGSSPTTIIYRNDKRPDGVSDRFSGSIDRSSKSASLTISNLKTEDEADYFCQSYSSGFIFGGGTKLTVL
notes: scFv order VH-(GGGGS)3-VL on Fc chain A; chain B is Fc only; also called v21828; not shown: Fc-only chain B is also left out
B3: variant 21826, monovalent anti-CD3 scFv-heterodimeric Fc (VL hC3E-1 (D52N), VH hC3E-1(N53R_D102E)) (Fc fusion)
scFv: EVQLVESGGGLVQPGGSLRLSCAASGVTFNYYGMSWIRQAPGKGLEWVASITRSGGRIYYPDSVKGRFTISRENTQKTLYLQMNSLRAEDTAVYYCTLDGREGWVAYWGQGTLVTVSSGGGGSGGGGSGGGGSNFMLTQPHSVSESPGKTVTISCKRNTGNIGSNYVNWYQQHEGSSPTTIIYRNDKRPDGVSDRFSGSIDRSSKSASLTISNLKTEDEADYFCQSYSSGFIFGGGTKLTVL
notes: scFv order VH-(GGGGS)3-VL on Fc chain A; chain B is Fc only; also called v21826; not shown: Fc-only chain B is also left out
B4: variant 18596, monovalent anti-CD3 scFv-heterodimeric Fc (VL hC3E-1, VH hC3E-1a D102E) (Fc fusion, not shown: a dimerising Fc or GST; small tags and cut ends)
scFv: EVQLVESGGGLVQPGGSLRLSCAASGVTFNYYGMSWIRQAPGKGLEWVASITNSGGRIYYPDSVKGRFTISRENTQKTLYLQMNSLRAEDTAVYYCTLDGREGWVAYWGQGTLVTVSSGGGGSGGGGSGGGGSNFMLTQPHSVSESPGKTVTISCKRNTGNIGSNYVNWYQQHEGSSPTTIIYRDDKRPDGVSDRFSGSIDRSSKSASLTISNLKTEDEADYFCQSYSSGFIFGGGTKLTVL
notes: scFv order VH-(GGGGS)3-VL on Fc chain A; chain B is Fc only; also called v18596
B5: variant 18343, monovalent anti-CD3 scFv-heterodimeric Fc (VL hC3E-1-1L1, VH hC3E-1) (Fc fusion, not shown: a dimerising Fc or GST; small tags and cut ends)
scFv: EVQLVESGGGLVQPGGSLRLSCAASGVTFNYYGMSWIRQAPGKGLEWVASITNSGGRIYYPDSVKGRFTISRENTQKTLYLQMNSLRAEDTAVYYCTLDGRDGWVAYWGQGTLVTVSSGGGGSGGGGSGGGGSQSVLTQPPSASGTPGQRVTISCKRNTGNIGSNYVNWYQQLPGTAPKLLIYRDDKRPDGVPDRFSGSKSGTSASLAISGLQSEDEADYYCQSYSSGFIFGGGTKLTVL
notes: scFv order VH-(GGGGS)3-VL on Fc chain A; chain B is Fc only; also called v18343
B6: variant 19370, monovalent anti-CD3 scFv-heterodimeric Fc (VL hC3E-1_1L1d, VH hC3E-1) (Fc fusion, not shown: a dimerising Fc or GST; small tags and cut ends)
scFv: EVQLVESGGGLVQPGGSLRLSCAASGVTFNYYGMSWIRQAPGKGLEWVASITNSGGRIYYPDSVKGRFTISRENTQKTLYLQMNSLRAEDTAVYYCTLDGRDGWVAYWGQGTLVTVSSGGGGSGGGGSGGGGSQVVLTQPPSASGTPGQRVTISCKRNTGNIGSNYVNWYQQLPGTAPKLLIYRDDKRPDGVPDRFSGSKSGTSASLAISGLQSEDEADYYCQSYSSGFIFGGGTKLTVL
notes: scFv order VH-(GGGGS)3-VL on Fc chain A; chain B is Fc only; also called v19370

What was measured:
[1] = target: T1, Recombinant CD3epsilon/delta Fc fusion protein (Sino Biological) (human, UniProt P07766 23-126; P04234 22-105); test: SPR (ProteOn XPR36), CD3epsilon/delta Fc fusion captured on anti-Fc chip, variant injected for 240 s; kinetic constants printed above the sensorgrams
T1 construct: Bought reagent; also called recombinant CD3 fusion protein; human CD3 antigen; not shown: Fc of the bought fusion protein; not described
Description: (§1) All SPR binding experiments were carried out using a BioRad ProteOn XPR36 instrument (Bio-Rad Laboratories, Hercules, Calif.) at 25° C. with 10 mM HEPES, 150 mM NaCl, 3.4 mM EDTA, and 0.05% Tween 20 at pH 7.4. Recombinant CD3epsilon/delta Fc fusion protein (Sino Biological, Wayne, Pa.) was captured on anti-Fc capture sensorchips. Purified antibodies were indirectly captured on the sensorchip by binding the recombinant CD3 fusion protein when injected at 25 μL/min for 240s (resulting in approx. 500 RUs) following a buffer injection to establish a stable baseline. Resultant KD values were determined from binding isotherms using the Equilibrium Fit model with reported values as the mean of three independent runs.

[2] = target: T2, human CD3 expressed on T cells (Jurkat cells, human pan T cells/PBMC) (human, UniProt P07766 23-207); test: flow cytometry on human T cells
T2 construct: whole, on cells; On T cells CD3 epsilon stands in the CD3 complex with the gamma, delta and zeta chains and the T-cell receptor; only the epsilon chain is written out; also called CD3+ Jurkat cells; human T cells
Description: Frozen human pan T cells or PBMCs were thawed and incubated with either media or serial dilutions of the anti-CD3 scFv-Fc constructs for one hour at 4° C. Commercially available SP34-2 antibody was used as positive controls while untreated cultures were used as negative controls. Following incubation with the anti-CD3 scFv constructs, the cells were washed and stained with a panel of conjugated antibodies specific for CD4, CD8, and IgG-Fc. The samples were acquired on a flow cytometer and analyzed using FlowJo version 10.1 software.

[3] = target: T1, Recombinant CD3epsilon/delta Fc fusion …; test: SPR (ProteOn XPR36), Equilibrium Fit, mean of three runs
Description: as §1

[4] = target: T3, cynomolgus monkey CD3 expressed on T cells (cynomolgus pan T cells/PBMC, HSC-F cell line) (cynomolgus monkey, UniProt Q95LI5 22-198); test: flow cytometry on cynomolgus T cells
T3 construct: whole, on cells; On T cells in the CD3 complex with the other subunits; only the epsilon chain is written out; also called cyno CD3; cyno T cells
Description: (§2) Frozen Cynomolgus monkey PBMCs were thawed then washed with RPMI-1640 media. Pan T cells were then isolated from the PBMCs using a negative isolation kit (Miltenyi Biotec, San Diego, Calif.) as per the manufacturer's instructions. The pan T cells were incubated in media alone or media containing serial dilutions of the anti-CD3 scFv-Fc constructs for one hour at 4° C. Commercially available SP34-2 antibody was used as positive controls while untreated cultures were used as negative controls. Following incubation with the anti-CD3 scFv constructs, the cells were washed and stained with a panel of conjugated antibodies specific for CD4, CD8, and IgG-Fc. The samples were acquired on a flow cytometer and analyzed using FlowJo version 10.1 software.

[5] = target: T2, human CD3 expressed on T cells (Jurkat …); test: cell ELISA on CD3+ Jurkat cells
Description: Cells were centrifuged and seeded in a 96-well filter plate in 50% complete culture medium/50% Blocking buffer. Equal volumes of 2× anti-CD3 scFv-Fc constructs or controls were added to cells and incubated for 1 hour. The plate was washed 4 times using vacuum filtration. An HRP-conjugated anti-human IgG Fc gamma specific secondary antibody was added to the wells and further incubated for 1 hour. The plate is washed 7 times by vacuum filtration followed by the addition of TMB substrate at room temperature. The reaction was stopped by adding 1 M sulfuric acid and supernatant was transferred into a clear 96-well plate. Absorbance (450 nm) was read on a Spectramax 340PC plate reader with path-check correction. Binding of the different scFv-Fc constructs to Jurkat cells and the apparent binding affinities are shown in FIG. 7 and Table 7, respectively.

[6] = target: T3, cynomolgus monkey CD3 expressed on T …; test: flow cytometry on cynomolgus pan T cells gated CD4+, detection with anti-IgG-Fc, geo MFI
Description: as §2

T1 sequence (P07766 23-126, stated change not applied, chain 1 of 2): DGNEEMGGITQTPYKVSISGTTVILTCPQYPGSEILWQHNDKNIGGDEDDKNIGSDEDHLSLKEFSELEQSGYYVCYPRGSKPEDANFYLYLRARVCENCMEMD
T1 sequence (P04234 22-105, stated change not applied, chain 2 of 2): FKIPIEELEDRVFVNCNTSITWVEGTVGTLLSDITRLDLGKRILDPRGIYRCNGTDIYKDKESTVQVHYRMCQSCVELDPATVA
T3 sequence (Q95LI5 22-198): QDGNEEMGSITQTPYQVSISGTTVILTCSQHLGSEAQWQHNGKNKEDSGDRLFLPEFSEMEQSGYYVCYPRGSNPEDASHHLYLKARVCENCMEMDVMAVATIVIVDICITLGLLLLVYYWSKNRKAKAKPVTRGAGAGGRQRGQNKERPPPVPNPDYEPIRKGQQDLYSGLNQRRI
T2 sequence (P07766 23-207): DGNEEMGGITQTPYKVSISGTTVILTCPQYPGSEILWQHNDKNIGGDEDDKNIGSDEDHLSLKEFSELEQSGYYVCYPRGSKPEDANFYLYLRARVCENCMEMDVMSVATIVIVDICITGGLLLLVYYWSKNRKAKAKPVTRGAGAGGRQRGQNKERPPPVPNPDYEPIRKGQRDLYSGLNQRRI

Row | Binder | Kd [1] | koff [1] | kon [1] | EC50 [2] | Kd [3] | EC50 [4] | EC50 [5] | EC50 (read off the curve) [6]
1 | B1 | 0.117 nM | 0.000163 s⁻¹ | 1.39e+06 M⁻¹ s⁻¹ | ~0.3 nM | 0.26 nM | 1.4 nM | 0.34 nM | ~1 µg/mL
2 | B2 |  |  |  | 1.6 nM |  | 104 nM | ~32.8 nM | 
3 | B3 |  |  |  | 1.7 nM |  | 2.5 nM | ~36100 nM | 
4 | B4 |  |  |  | 69.5 nM | 9 nM | 172 nM | 2.57 nM | 
5 | B5 |  |  |  |  | 30 nM |  | 2.61 nM | 
6 | B6 |  |  |  | 0.7 nM | 6.8 nM | 2.4 nM | 3.09 nM | 
